Laboratory results reported in paper PMC10199020 (Nature Communications, 2023).

Target: T1, NL-IL23R co-expressed with IL12Rβ1 (IL-23 receptor on cells) (UniProt Q5VWK5 24-629; P42701 24-662)
T1 construct: also called NL-IL23R and IL12Rβ1; NL-IL23R with IL12Rβ1; source: HEK293T, transiently transfected, on living cells
Test: FRET or BRET; NanoBRET competition on living transfected HEK293T cells; 300 pM IL23-TMR displaced by unlabelled antagonist (concentration series or a single concentration); 1 h at 37 °C in HBSS with 1 mg/mL BSA
Conditions: one partner purified

T1 sequence (Q5VWK5 24-629, chain 1 of 2, other chains not shown): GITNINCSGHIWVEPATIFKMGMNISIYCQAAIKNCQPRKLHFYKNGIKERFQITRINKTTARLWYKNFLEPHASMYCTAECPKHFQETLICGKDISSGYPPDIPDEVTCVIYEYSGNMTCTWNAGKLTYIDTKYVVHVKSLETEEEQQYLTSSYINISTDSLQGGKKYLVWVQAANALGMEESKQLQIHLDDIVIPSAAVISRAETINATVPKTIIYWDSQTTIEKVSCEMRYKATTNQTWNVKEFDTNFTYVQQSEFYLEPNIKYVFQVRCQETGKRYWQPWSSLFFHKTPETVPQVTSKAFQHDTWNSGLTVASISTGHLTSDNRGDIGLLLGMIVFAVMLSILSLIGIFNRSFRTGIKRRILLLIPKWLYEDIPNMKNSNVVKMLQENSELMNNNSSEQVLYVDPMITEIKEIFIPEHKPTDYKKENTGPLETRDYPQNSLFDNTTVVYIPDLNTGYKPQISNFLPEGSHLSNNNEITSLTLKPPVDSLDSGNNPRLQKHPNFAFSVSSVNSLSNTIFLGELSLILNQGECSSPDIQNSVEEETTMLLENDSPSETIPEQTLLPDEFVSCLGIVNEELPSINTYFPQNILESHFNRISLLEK

- Ki: 12.4 nM
B1: IL12p40 (ligand, UniProt P29460 23-328, looked up)
chain: IWELKKDVYVVELDWYPDAPGEMVVLTCDTPEEDGITWTLDQSSEVLGSGKTLTIQVKEFGDAGQYTCHKGGEVLSHSLLLLHKKEDGIWSTDILKDQKEPKNKTFLRCEAKNYSGRFTCWWLTTISTDLTFSVKSSRGSSDPQGVTCGAATLSAERVRGDNKEYEYSVECQEDSACPAAEESLPIEVMVDAVHKLKYENYTSSFFIRDIIKPDPPKNLQLKPLKNSRQVEVSWEYPDTWSTPHSYFSLTFCVQVQGKSKREKKDRVFTDKTSATVICRKNASISVRAQDRYYSSSWSEWASVPCS
notes: source: bought: Peprotech (CHO produced)
